From patent US20250215100A1 (HARBOUR BIOMED SHANGHAI, published 2025)

How the values were obtained:
human CD40 on cells [1] = biological target: T1, human CD40 on cells (human, UniProt P25942 21-277); assay: FACS, CHO-K1/hCD40 cells
T1 construct: whole, on cells; The cell line used is named in each row's assay; also called hCD40; TNFRSF5
From the text: (§1) Flow cytometry (FACS) was used to detect the binding ability of the CD40 antibody to cells, such as, CHO-K1/hCD40 highly expressing human CD40 (constructed by Beijing Kyinno Biotechnology), CHO-K1/cyCD40 highly expressing cynomolgus monkey CD40 (constructed by Beijing Kyinno Biotechnology) and lymphoma cell highly expressing human CD40, Raji (ATCC, #CCL-86). Specifically, the cells were digested and resuspended with complete medium (F-12K for CHO-K1 cells; and RPMI-1640 for Raji cells); and the cells were adjusted to a cell density of 1×10⁶ cells/mL. The cells were seeded in a 96-well V-bottom plate (Corning, #3894) at 100 μL/well, and the antigen binding protein to be tested at 2x final concentration was then added at 100 μL/well and mixed evenly, with the highest final concentration of the antigen binding protein of 300 nM, a total of 8 concentrations, and 5-fold concentration gradient dilution. hIgG (Crownbio, #C0002) was used as a negative control, and the positive control molecule was the molecule in Table 1-5. The cells were incubated at 4° C. for 1 hours in the dark. After the incubation, the cells were rinsed twice by adding pre-chilled PBS at 100 μL/well, and centrifuged at 500 g at 4° C. for 5 minutes, and the supernatant was discarded. Then, a fluorescent secondary antibody (goat anti-human IgG (H+L) secondary antibody, Alexa Fluor® 488 conjugate, Invitrogen, #A11013, 1:1000 dilution) was added at 100 µL/well, and the cells were incubated at 4° C. for 30 minutes in the dark. The cells were washed twice with pre-chilled PBS at 200 μL/well, and centrifuged at 500 g at 4° C. for 5 minutes, and the supernatant was discarded. Finally, the cells were resuspended in pre-chilled PBS at 200 μL/well. The fluorescence signal values were read using a BD FACS CANTOII flow cytometer or ACEA NovoCyte flow cytometer, and the data were processed and analyzed using FlowJo v10 software (FlowJo, LLC).
(§2) Data processing and graphical analysis were performed using GraphPad Prism 8 software. The binding curve of the antibody to the target cell and parameters, such as EC50 value were obtained by four-parameter nonlinear fitting.

[2] = biological target: T2, cynomolgus monkey CD40 on cells (cynomolgus monkey, UniProt G7PG38 21-278); assay: FACS, CHO-K1/cyCD40 cells
T2 construct: also called cyCD40; CHO-K1/cyCD40
From the text: as §1, §2

human CD40 on cells [3] = biological target: T1, human CD40 on cells; assay: FACS, Raji cells
From the text: as §1, §2

T1 sequence (P25942 21-277): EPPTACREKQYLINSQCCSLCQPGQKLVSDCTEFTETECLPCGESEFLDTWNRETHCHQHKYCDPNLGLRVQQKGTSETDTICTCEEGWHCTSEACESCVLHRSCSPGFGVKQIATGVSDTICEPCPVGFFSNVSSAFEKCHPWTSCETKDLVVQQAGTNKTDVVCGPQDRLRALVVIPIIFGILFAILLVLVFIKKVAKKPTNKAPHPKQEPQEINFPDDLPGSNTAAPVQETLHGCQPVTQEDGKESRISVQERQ
T2 sequence (G7PG38 entry or part of it limits assumed): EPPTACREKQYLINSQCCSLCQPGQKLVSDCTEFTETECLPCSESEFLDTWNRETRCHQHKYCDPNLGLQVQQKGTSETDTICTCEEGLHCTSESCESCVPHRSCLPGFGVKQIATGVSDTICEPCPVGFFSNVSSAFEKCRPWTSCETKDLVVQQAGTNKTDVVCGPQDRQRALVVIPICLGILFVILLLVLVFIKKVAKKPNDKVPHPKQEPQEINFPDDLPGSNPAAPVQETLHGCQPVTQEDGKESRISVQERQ

EC50 (human CD40 on cells [1]) [nM]	Maximum MFI (human CD40 on cells [1]) [MFI]	EC50 [2] [nM]	Maximum MFI [2] [MFI]	EC50 (human CD40 on cells [3]) [nM]	Maximum MFI (human CD40 on cells [3]) [MFI]	Binder
2.83	26000	4.72	93600	0.0347	2790	PR001303 (APX005) (antibody, human IgG1, kappa, CD40 positive control antibody) heavy: not shown light: DIQMTQSPSSLSASVGDRVTIKCQASQSISSRLAWYQQKPGKPPKLLIYRASTLASGVPSRFSGSGSGTDFTLTISSLQPEDVATYYCQCTGYGISWPIGGGTKVEIKRTVAAPSVFIFPPSDEQLKSGTASVVCLLNNFYPREAKVQWKVDNALQSGNSQESVTEQDSKDSTYSLSSTLTLSKADYEKHKVYACEVTHQGLSSPVTKSFNRGEC
8.87	92300	6.26	52200	0.418	9070	PR006492 (antibody, human IgG1, kappa, V domains shown, PR003379 variant L:N92E; human IgG1 L234A, L235A, G237A) VH: QVQLVQSGAEVKKPGASVKVSCKASGYTFAGYYMYWVRQAPGQGLEWMGWINPDSGAPTYAQKFQGRVTMTRDTSISTAYMELSRLRSDDTAVYYCAREKIYYGSGNYYPSFDYWGQGTLVTVSS VL: DIQLTQSPSFLSASVGDRVTITCRASQGISSYLAWYQQKPGKAPKLLIYAASTLQSGVPSRFSGSGSGTEFTLTISSLQPEDFATYYCQQLESYPWTFGQGTKVEIKR
5.08	86900	4.23	45100	0.455	12000	PR006514 (antibody, human IgG1, kappa, V domains shown, PR003379 variant L:S93V; human IgG1 L234A, L235A, G237A) VH: QVQLVQSGAEVKKPGASVKVSCKASGYTFAGYYMYWVRQAPGQGLEWMGWINPDSGAPTYAQKFQGRVTMTRDTSISTAYMELSRLRSDDTAVYYCAREKIYYGSGNYYPSFDYWGQGTLVTVSS VL: DIQLTQSPSFLSASVGDRVTITCRASQGISSYLAWYQQKPGKAPKLLIYAASTLQSGVPSRFSGSGSGTEFTLTISSLQPEDFATYYCQQLNVYPWTFGQGTKVEIKR
6.08	82700	4.62	48100	0.336	11900	PR006505 (antibody, human IgG1, kappa, V domains shown, PR003379 variant L:S93I; human IgG1 L234A, L235A, G237A) VH: QVQLVQSGAEVKKPGASVKVSCKASGYTFAGYYMYWVRQAPGQGLEWMGWINPDSGAPTYAQKFQGRVTMTRDTSISTAYMELSRLRSDDTAVYYCAREKIYYGSGNYYPSFDYWGQGTLVTVSS VL: DIQLTQSPSFLSASVGDRVTITCRASQGISSYLAWYQQKPGKAPKLLIYAASTLQSGVPSRFSGSGSGTEFTLTISSLQPEDFATYYCQQLNIYPWTFGQGTKVEIKR
5.58	81800	5.01	49300	0.384	12300	PR006507 (antibody, human IgG1, kappa, V domains shown, PR003379 variant L:S93E; human IgG1 L234A, L235A, G237A) VH: QVQLVQSGAEVKKPGASVKVSCKASGYTFAGYYMYWVRQAPGQGLEWMGWINPDSGAPTYAQKFQGRVTMTRDTSISTAYMELSRLRSDDTAVYYCAREKIYYGSGNYYPSFDYWGQGTLVTVSS VL: DIQLTQSPSFLSASVGDRVTITCRASQGISSYLAWYQQKPGKAPKLLIYAASTLQSGVPSRFSGSGSGTEFTLTISSLQPEDFATYYCQQLNEYPWTFGQGTKVEIKR
5.29	91000	4.19	48200	0.352	9000	PR006501 (antibody, human IgG1, kappa, V domains shown, PR003379 variant L:N92Q; human IgG1 L234A, L235A, G237A) VH: QVQLVQSGAEVKKPGASVKVSCKASGYTFAGYYMYWVRQAPGQGLEWMGWINPDSGAPTYAQKFQGRVTMTRDTSISTAYMELSRLRSDDTAVYYCAREKIYYGSGNYYPSFDYWGQGTLVTVSS VL: DIQLTQSPSFLSASVGDRVTITCRASQGISSYLAWYQQKPGKAPKLLIYAASTLQSGVPSRFSGSGSGTEFTLTISSLQPEDFATYYCQQLQSYPWTFGQGTKVEIKR
7.51	89200	3.56	40200	0.373	12000	PR006513 (antibody, human IgG1, kappa, V domains shown, PR003379 variant L:S93Q; human IgG1 L234A, L235A, G237A) VH: QVQLVQSGAEVKKPGASVKVSCKASGYTFAGYYMYWVRQAPGQGLEWMGWINPDSGAPTYAQKFQGRVTMTRDTSISTAYMELSRLRSDDTAVYYCAREKIYYGSGNYYPSFDYWGQGTLVTVSS VL: DIQLTQSPSFLSASVGDRVTITCRASQGISSYLAWYQQKPGKAPKLLIYAASTLQSGVPSRFSGSGSGTEFTLTISSLQPEDFATYYCQQLNQYPWTFGQGTKVEIKR
5.18	81600	4.55	45800	0.424	12100	PR006512 (antibody, human IgG1, kappa, V domains shown, PR003379 variant L:S93T; human IgG1 L234A, L235A, G237A) VH: QVQLVQSGAEVKKPGASVKVSCKASGYTFAGYYMYWVRQAPGQGLEWMGWINPDSGAPTYAQKFQGRVTMTRDTSISTAYMELSRLRSDDTAVYYCAREKIYYGSGNYYPSFDYWGQGTLVTVSS VL: DIQLTQSPSFLSASVGDRVTITCRASQGISSYLAWYQQKPGKAPKLLIYAASTLQSGVPSRFSGSGSGTEFTLTISSLQPEDFATYYCQQLNTYPWTFGQGTKVEIKR
6.07	84500	3.99	49600	0.333	12200	PR006503 (antibody, human IgG1, kappa, V domains shown, PR003379 variant L:N92G; human IgG1 L234A, L235A, G237A) VH: QVQLVQSGAEVKKPGASVKVSCKASGYTFAGYYMYWVRQAPGQGLEWMGWINPDSGAPTYAQKFQGRVTMTRDTSISTAYMELSRLRSDDTAVYYCAREKIYYGSGNYYPSFDYWGQGTLVTVSS VL: DIQLTQSPSFLSASVGDRVTITCRASQGISSYLAWYQQKPGKAPKLLIYAASTLQSGVPSRFSGSGSGTEFTLTISSLQPEDFATYYCQQLGSYPWTFGQGTKVEIKR
8.73	98800	4.04	49600	0.328	9180	PR006494 (antibody, human IgG1, kappa, V domains shown, PR003379 variant L:N92T; human IgG1 L234A, L235A, G237A) VH: QVQLVQSGAEVKKPGASVKVSCKASGYTFAGYYMYWVRQAPGQGLEWMGWINPDSGAPTYAQKFQGRVTMTRDTSISTAYMELSRLRSDDTAVYYCAREKIYYGSGNYYPSFDYWGQGTLVTVSS VL: DIQLTQSPSFLSASVGDRVTITCRASQGISSYLAWYQQKPGKAPKLLIYAASTLQSGVPSRFSGSGSGTEFTLTISSLQPEDFATYYCQQLTSYPWTFGQGTKVEIKR
5.51	79600	4.69	45300	0.371	12200	PR006509 (antibody, human IgG1, kappa, V domains shown, PR003379 variant L:S93L; human IgG1 L234A, L235A, G237A) VH: QVQLVQSGAEVKKPGASVKVSCKASGYTFAGYYMYWVRQAPGQGLEWMGWINPDSGAPTYAQKFQGRVTMTRDTSISTAYMELSRLRSDDTAVYYCAREKIYYGSGNYYPSFDYWGQGTLVTVSS VL: DIQLTQSPSFLSASVGDRVTITCRASQGISSYLAWYQQKPGKAPKLLIYAASTLQSGVPSRFSGSGSGTEFTLTISSLQPEDFATYYCQQLNLYPWTFGQGTKVEIKR
5.85	82800	4.5	47300	0.388	12100	PR006506 (antibody, human IgG1, kappa, V domains shown, PR003379 variant L:S93F; human IgG1 L234A, L235A, G237A) VH: QVQLVQSGAEVKKPGASVKVSCKASGYTFAGYYMYWVRQAPGQGLEWMGWINPDSGAPTYAQKFQGRVTMTRDTSISTAYMELSRLRSDDTAVYYCAREKIYYGSGNYYPSFDYWGQGTLVTVSS VL: DIQLTQSPSFLSASVGDRVTITCRASQGISSYLAWYQQKPGKAPKLLIYAASTLQSGVPSRFSGSGSGTEFTLTISSLQPEDFATYYCQQLNFYPWTFGQGTKVEIKR
5.26	83400	4.06	48900	0.377	9350	PR006493 (antibody, human IgG1, kappa, V domains shown, PR003379 variant L:N92L; human IgG1 L234A, L235A, G237A) VH: QVQLVQSGAEVKKPGASVKVSCKASGYTFAGYYMYWVRQAPGQGLEWMGWINPDSGAPTYAQKFQGRVTMTRDTSISTAYMELSRLRSDDTAVYYCAREKIYYGSGNYYPSFDYWGQGTLVTVSS VL: DIQLTQSPSFLSASVGDRVTITCRASQGISSYLAWYQQKPGKAPKLLIYAASTLQSGVPSRFSGSGSGTEFTLTISSLQPEDFATYYCQQLLSYPWTFGQGTKVEIKR
5.08	86100	5.29	51400	0.351	8900	PR006516 (antibody, human IgG1, kappa, V domains shown, PR003379 variant L:S93H; human IgG1 L234A, L235A, G237A) VH: QVQLVQSGAEVKKPGASVKVSCKASGYTFAGYYMYWVRQAPGQGLEWMGWINPDSGAPTYAQKFQGRVTMTRDTSISTAYMELSRLRSDDTAVYYCAREKIYYGSGNYYPSFDYWGQGTLVTVSS VL: DIQLTQSPSFLSASVGDRVTITCRASQGISSYLAWYQQKPGKAPKLLIYAASTLQSGVPSRFSGSGSGTEFTLTISSLQPEDFATYYCQQLNHYPWTFGQGTKVEIKR
